Measurements as given in patent US20110206668A1.

Target: murine MRC OX-2 (mouse) (UniProt O54901)
Assay: FACS of 10-day cultured mouse bone marrow derived dendritic cells, anti-CD200 and PE anti-mouse IgG

Chain of UniProt O54901 (O54901 31-278 limits assumed): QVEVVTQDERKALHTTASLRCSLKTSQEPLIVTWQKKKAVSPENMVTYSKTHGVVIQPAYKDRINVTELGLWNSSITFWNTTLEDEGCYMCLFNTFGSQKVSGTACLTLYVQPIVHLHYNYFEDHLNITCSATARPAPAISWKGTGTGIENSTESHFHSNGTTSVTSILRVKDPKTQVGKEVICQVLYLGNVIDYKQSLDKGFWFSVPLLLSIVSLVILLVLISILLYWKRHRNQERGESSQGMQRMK

With “mouse IgG1 anti-rat CD200 (commercial anti-rat MRC OX-2 monoclonal antibody, Cedarlane Labs)” the percent stained cells was 14%.
